Results published in patent US20230079150A1, “METHODS FOR PREVENTION OR TREATMENT OF VIRUS-INDUCED ORGAN INJURY OR FAILURE WITH IL-22 DIMER” (priority 2020, published 2023).
Like-named read-outs stand apart in the source and are kept apart here.

What was measured:
[1] = tested on: H1N1 influenza (A/PR8 strain); type: in vivo, C57BL/6 mice; settings: aged mice; data not shown
[2] = tested on: SARS-CoV-2; type: cell-based, human; settings: for sgm-N RNA copies compared to no F-652 treatment: MOI 0.1, 48 hours post challenge
[3] = tested on: C57BL/6 mice; assay: LPS acute lung injury mouse model: endothelial glycocalyx intensity in alveolar capillaries; type: in vivo
Procedure: (§1) After approval from the Tulane University, Institutional Animal Care and Use Committee (protocol ID 607), equal numbers of male and female, 6-8 week old C57BL/6 mice (Charles River Laboratories, Cambridge, Mass.) were given acute lung injury (ALI) via intra-tracheally administered LPS. After obtaining appropriate depth of anesthesia using isoflurane, the high-dose LPS group (HDG) received 100 μg of LPS administered intra-tracheally. Approximately 30 minutes after LPS administration, 4 μg of F-652 was administered via tail vein injection (n=11), then compared to animals receiving sham injection (n=8) with phosphate-buffered saline (PBS). In the low-dose LPS group (LDG), 33.3 μg of LPS was administered intra-tracheally. F-652 was again administered at 30 minutes (n=9) and compared to sham injected animals (n=9). […]
Paraformaldehyde-fixed lung segments were flash-frozen in Optimal Cutting Temperature (O.C.T) compound (Sakura) and sectioned on a cryostat. […] Glycocalyx and nuclei (4′,6-diamidino-2-phenylindole) were imaged on an Olympus BX51 fluorescence microscope under identical conditions. ImageJ software was used to quantify glycocalyx fluorescence intensity in the alveolar capillaries from a minimum of 20 regions of interest from 3 mice per condition.

[4] = LPS acute lung injury mouse model: human IL-22 ELISA in BAL; type: in vivo, mice; settings: high-dose LPS; F-652 4 μg tail vein; day 4; sham non-detectable
Procedure: as §1
(§2) The BAL fluid was then centrifuged at 500×gravity for 5 minutes. […] To quantify protein in the BAL supernatant, a Bradford protein assay (Bio-Rad Laboratories) was performed. Protein was quantified by measuring absorbance at 595 nm on a BMG Labtech FLUOstar Optima plate reader. […] Human IL-22 was measured using an IL-22 Human ELISA kit (ThermoFisher Scientific). Mouse IL-22 was measured using an IL-22 Mouse/Rat Quantikine ELISA kit (R&D Systems).

[5] = tested on: C57BL/6 mice; assay: LPS acute lung injury mouse model: BAL protein (Bradford assay); type: in vivo; settings: F-652 4 μg i.v., day 4
Procedure: as §1, §2

[6] = tested on: C57BL/6 mice; assay: LPS acute lung injury mouse model: BAL cell counts; type: in vivo; settings: for BAL total cell counts: F-652 4 μg tail vein at 30 min
Procedure: After approval from the Tulane University, Institutional Animal Care and Use Committee (protocol ID 607), equal numbers of male and female, 6-8 week old C57BL/6 mice (Charles River Laboratories, Cambridge, Mass.) were given acute lung injury (ALI) via intra-tracheally administered LPS. After obtaining appropriate depth of anesthesia using isoflurane, the high-dose LPS group (HDG) received 100 μg of LPS administered intra-tracheally. Approximately 30 minutes after LPS administration, 4 μg of F-652 was administered via tail vein injection (n=11), then compared to animals receiving sham injection (n=8) with phosphate-buffered saline (PBS). In the low-dose LPS group (LDG), 33.3 μg of LPS was administered intra-tracheally. F-652 was again administered at 30 minutes (n=9) and compared to sham injected animals (n=9). The Interleukin-22:Fc (F-652) protein is a recombinant fusion protein (F-652) (Evive Biotech, Shanghai, China) with two human IL-22 molecules linked to the Fc portion of human immunoglobulin G2, which extends the half-life of the molecule.
Euthanasia and bronchoalveolar lavage (BAL) was carried out on post-injury day 4. After obtaining appropriate levels of anesthesia with inhaled isoflurane, the trachea was cannulated using a 26 gauge needle and BAL was performed with three successive washes using 1 mL of PBS. Next, a small segment of the left lower lobe was removed and saved for RNA isolation. Finally, 1 cc of 4% paraformaldehyde was injected to the lung for fixation.
The BAL fluid was then centrifuged at 500×gravity for 5 minutes. Cells were obtained from the BAL after centrifuge and cell counts performed. Cells were then affixed to glass slides and stained with Wright's stain. To quantify protein in the BAL supernatant, a Bradford protein assay (Bio-Rad Laboratories) was performed. Protein was quantified by measuring absorbance at 595 nm on a BMG Labtech FLUOstar Optima plate reader. In addition, the BAL supernatant was used to measure pro-inflammatory cytokines using a Milliplex Mouse Cytokine/Chemokine Magnetic Bead Panel (Millipore Sigma). The 32 cytokines measured included Eotaxin, Granulocyte Colony-Stimulating Factor (G-CSF), Granulocyte-Monocyte Colony-Stimulating Factor (GM-CSF), Interferon-γ (IFN-γ), Interleukin-1α (IL-1α), IL-1, IL-2, IL-3, IL-4, IL-5, IL-6, IL-7, IL-9, IL-10, IL-12 (p40 segment), IL-12 (p70 segment), IL-13, IL-15, IL-17, Interferon-γ induced protein 10 (IP-10), keratinocyte chemoattractant (KC), leukemia inhibitory factor (LIF), lipopolysaccharide-induced CXC chemokine (LIX), monocyte chemoattractant protein-1 (MCP-1), macrophage colony-stimulating factor (M-CSF), monokine induced by gamma-interferon (MIG), MIP-1α, macrophage inflammatory protein-1β/CCL4 (MIP-1β), MIP-2, regulated upon activation, normal T-cell expressed and presumably secreted (RANTES), tumor necrosis factor-α (TNF-α), vascular endothelial growth factor (VEGF). Human IL-22 was measured using an IL-22 Human ELISA kit (ThermoFisher Scientific). Mouse IL-22 was measured using an IL-22 Mouse/Rat Quantikine ELISA kit (R&D Systems).

[7] = tested on: mouse IL-22; assay: LPS acute lung injury mouse model: endogenous mouse IL-22 ELISA in BAL; type: in vivo, mice; settings: low-dose LPS; F-652 4 μg tail vein; day 4; sham non-detectable
Procedure: as §1, §2

[8] = tested on: HUVECs; assay: Real-time quantitative RT-PCR of mRNA levels in HUVECs; type: cell-based, human
Procedure: RNA was isolated with Trizol (Invitrogen) and used as a template for reverse transcriptase (reverse transcriptase mix sold under the trademark ISCRIPT® RT supermix, Bio-Rad). mRNAs were quantified by real-time PCR with the cyanine nucleic acid dye IQ SYBR® Green Supermix (Bio-Rad), and normalized against PPIA mRNA as the internal control gene. Relative changes in expression were calculated using the […] as established in prior studies. (Livak K J, Schmittgen T D. “Analysis of relative gene expression data using real-time quantitative PCR and the 2^−ΔΔCT method.” Methods. 2001; 25(4):402-8).

[9] = LPS and F-652 co-exposed, LPS only 1.49
[10] = LPS and F-652 compared to control

B1: F-652: recombinant IL-22 dimer consisting of two monomeric subunits each comprising a sequence shown in SEQ ID NO: 24 (protein)
chain 1: APISSHCRLDKSNFQQPYITNRTFMLAKEASLADNNTDVRLIGEKLFHGVSMSERCYLMKQVLNFTLEEVLFPQSDRFQPYMQEVVPFLARLSNRLSTCHIEGDDLHIQRNVQKLKDTVKKLGESGEIKAIGELDLLFMSLRNACIGSGGGSGGGGSGGGGSVECPPCPAPPVAGPSVFLFPPKPKDTLMISRTPEVTCVVVDVSHEDPEVQFNWYVDGVEVHNAKTKPREEQFNSTFRVVSVLTVVHQDWLNGKEYKCKVSNKGLPASIEKTISKTKGQPREPQVYTLPPSREEMTKNQVSLTCLVKGFYPSDIAVEWESNGQPENNYKTTPPMLDSDGSFFLYSKLTVDKSRWQQGNVFSCSVMHEALHNHYTQKSLSLSPGK
chain 2: APISSHCRLDKSNFQQPYITNRTFMLAKEASLADNNTDVRLIGEKLFHGVSMSERCYLMKQVLNFTLEEVLFPQSDRFQPYMQEVVPFLARLSNRLSTCHIEGDDLHIQRNVQKLKDTVKKLGESGEIKAIGELDLLFMSLRNACIGSGGGSGGGGSGGGGSVECPPCPAPPVAGPSVFLFPPKPKDTLMISRTPEVTCVVVDVSHEDPEVQFNWYVDGVEVHNAKTKPREEQFNSTFRVVSVLTVVHQDWLNGKEYKCKVSNKGLPASIEKTISKTKGQPREPQVYTLPPSREEMTKNQVSLTCLVKGFYPSDIAVEWESNGQPENNYKTTPPMLDSDGSFFLYSKLTVDKSRWQQGNVFSCSVMHEALHNHYTQKSLSLSPGK
modifications: homodimer
CD8+ cells and KRT5+ cells in lungs compared to PBS control [1]: clear trend of decrease
sgm-N RNA copies compared to no F-652 treatment ([2]; post-treatment, 100 ng/mL F-652 basolaterally on the day post-viral infection): significantly lower
mapping of RNA-seq reads to the SARS-CoV-2 genome compared to no F-652 treatment ([2]; pre-treatment and post-treatment with 100 ng/mL F-652): reduced mapping
sgm-N RNA copies compared to no F-652 treatment ([2]; pre-treatment, 100 ng/mL F-652 for 18 hours before infection): significantly lower
endothelial glycocalyx intensity, F-652 treated vs sham ([3]; high dose LPS injury): no significant difference
endothelial glycocalyx intensity in alveolar capillaries ([3]; low dose LPS injury, sham 63.7): 80.0 Arbitrary Units
human IL-22 level in BAL [4]: 27.41 pg/mL
BAL protein ([5]; high-dose LPS injury, sham 0.38): 0.55 µg/µL
BAL protein ([5]; low-dose LPS injury, sham 0.25): 0.15 µg/µL
BAL total cell counts ([6]; high-dose LPS (100 μg intra-tracheal), day 4, sham 3.15×10^6): 5.40×10^5 cells
BAL macrophage counts ([6]; high-dose LPS, F-652 4 μg tail vein, day 4, sham 2.72×10^6): 1.21×10^5 cells
BAL neutrophil counts ([6]; high-dose LPS, F-652 4 μg tail vein, day 4, sham 8.99×10^5): 3.69×10^4 cells
BAL lymphocyte counts ([6]; high-dose LPS, F-652 4 μg tail vein, day 4, sham 213,225): 2,163 cells
BAL total cell counts ([6]; low-dose LPS (33.3 μg intra-tracheal), post-injury day 4, sham 433,889): 364,444 cells
BAL lymphocyte count ([6]; low-dose LPS, F-652 4 μg tail vein, day 4, sham 6,556): 1,864 cells
BAL neutrophil count ([6]; low-dose LPS, F-652 4 μg tail vein, day 4, sham 6,869): 1,653 cells
BAL macrophage count ([6]; low-dose LPS, F-652 4 μg tail vein, day 4, sham 429,262): 290,611 cells
endogenous mouse IL-22 level in BAL [7]: 1.22 pg/mL
ADAM17 levels ([8]; F-652 alone, control 1.09): 1.14 RE
MMP-7 levels ([8]; F-652 alone, control 1.11): 1.23 RE
levels of any matrix metalloproteinase ([8]; F-652 only): did not change
VE-CAD RNA levels ([8]; F-652 only exposed, control 1.06): 1.01 RE
ADAM17 levels ([8]; LPS and F-652, control 1.09, LPS 2.42): 1.22 RE
MMP-7 levels ([8]; LPS and F-652, control 1.11, LPS 2.99): 1.53 RE
MYD88 RNA expression ([8]; LPS and F-652 co-exposed, LPS only 1.48): 0.72 RE
Exostosin-1 level [8, 9]: 0.82 RE
TIMP2 level [8, 9]: 0.82 RE
IRAK4 mRNA expression ([8]; LPS and F-652 co-exposed, LPS only 1.51): 0.86 RE
Exostosin-2 level ([8]; LPS and F-652 co-exposed, LPS only 1.88): 0.99 RE
TIRAP mRNA expression ([8]; LPS and F-652 co-exposed, LPS only 1.92): 0.82 RE
VE-CAD RNA levels ([8]; LPS and F-652 co-exposed, control 1.06, LPS only 1.96): 0.81 RE
expression of MMP-9 [8, 10]: did not change
expression of Matrix Metalloproteinase-1 (MMP-1) [8, 10]: did not significantly change
relative expression of MMP-2 [8, 10]: lower relative expression
relative expression of MMP-14 [8, 10]: lower relative expression
MMP-9 relative expression ([8]; LPS and F-652 exposed compared to LPS exposed (2.99)): 1.53 RE
TLR4 mRNA ([8]; all comparisons): not significantly different
Levels of TRAM, TRAF6, IRAK1, and TRIF ([8]; all group comparisons): not significantly different
Tissue inhibitor of metalloproteinase-1 (TIMP1) ([8]; among various HUVEC exposure groups): not different
